Reference: PMC11464722 (Nature Communications, 2024)

Target: SNAP-tagged murine µOR on HEK293 cells (murine, UniProt P42866, SNAP-Lumi4-Tb (terbium cryptate) on the SNAP tag)
Experiment: AlphaScreen or HTRF

Sequence of SNAP-tagged murine µOR on HEK293 cells (P42866 whole entry): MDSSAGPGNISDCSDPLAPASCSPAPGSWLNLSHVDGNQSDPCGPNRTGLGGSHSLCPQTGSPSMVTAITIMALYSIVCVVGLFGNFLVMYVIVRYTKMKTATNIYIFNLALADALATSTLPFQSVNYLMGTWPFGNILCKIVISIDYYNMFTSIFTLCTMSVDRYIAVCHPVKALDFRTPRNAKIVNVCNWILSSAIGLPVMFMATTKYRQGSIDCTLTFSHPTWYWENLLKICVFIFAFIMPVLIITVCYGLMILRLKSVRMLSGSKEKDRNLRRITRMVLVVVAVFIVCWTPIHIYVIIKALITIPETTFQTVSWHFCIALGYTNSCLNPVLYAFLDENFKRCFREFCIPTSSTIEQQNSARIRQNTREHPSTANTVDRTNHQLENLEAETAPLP

B1: mNbE (N45K, Q117K, Q120P)-6xHis (VHH)
VHH: QVQLVESGGGLVQAGGSLRLSCAASGSISSISTMGWYRQAPGKERELVAAITSGGSTNYADSVKGRFTISRDNAKNTVYLQMNSLKPEDTAVYYCNFKYYSGSYFYKSEYDYWGKGTPVTVSS
  binding result: binds
